# Test: soluble on expression in E. coli; label from the status in PepcDB or PDB records
row,Sequence,soluble on expression in E. coli
1,SHSEAEESKEVAADVFNSKNLAVQAQKKILGKMVSKSIATTLIDDTSSEVLDELYRVTREYTQNKKEAEKIIKNLIKTVIKLAILYRNNQFNQDELALMEKFKKKVHQLAMTVVSFHQVDYTFDRNVLSRLLNECREMLHQIIQRHLTAKSHGRVNNVFDHFSDCEFLAALYNPFGNFKPHLQKLCDGINKMLDEENI,soluble
2,MKEDKKVLHVANMTNGLIVYPDYDYIVYFPSSYTAAGTPLYFPEFAVPIDLIKALLEEKKVIMYDATVHENKELTDAFLKGVPTFLMALNRAIHGTKGLFEKLEKGYKVCPWQTPDIVQHAVYRLPKHYYKFLKKCVKLFAPEKRGKLWISIPENVELVVEKIDRRLNDNYEEIAKMIKEKKSIHTYRV,not soluble
3,MAEQRWTGQLDLTVFNNGQSSKARNIFFEKALKVLRPIYLEQSPVPTFYIVNVGGGYLDGDRYRVNVNLEDNAQVTLTSQGATKIYKTPNDHVEQYQTFNLSNQSYMEFVADPIIAYENAKFFQHNTFNLKEDSAMFYTDILTPGYSSNGQDFTYNYMHLINEIYIDNQLVVFDNMMLSPDKSRLDGIGYMENYTHLGSAYFIHPDVNQSFIDDIYAAVADFQKQYDCRIGISQLPTHGLAVRILTKRTQIIEEILTRVQSYINQTIYHRQINFLRKYLEHHHHHH,not soluble
4,VAPLGLSVPSDVELPPTAKMHAIIERTASFVCRQGAQFEIMLKAKQARNSQFDFLRFDHYLNPYYKFIQKAMKEGRYTVLAENKSDEKKKSGVS,soluble
5,MAHHHHHHMKGVSIRQLDAIIILDSDGKRIAVKYYNDQFLPKGESKLIHKSPSRDSISYPFEDTYNNLRTVEDQKMFENDITEKARKLGGNSSETEVLILSKFTVLYLLINDVSIYIVGDEGDNEIILHEIMQTVQQCLESVTNNQIGRKQLLEKLDSIYLILDEIADSGIIMETNPNVIINRLYMHESDLQEHTPLNQAISSAKENIIRSLLSGT,soluble
6,MAHHHHHHMLTSTAYGMELQARAIAPFYHSSNNSSSTHRFVAGTACFAGGNVIRLLTFQEESQLLECTATWSHEEEIFGLWSSPSVAGPSLLAVGASSYCRIFRVSDDVSGELEPVVNFNAAAAQVLWDLEGLQNEVKLISEDSLRIYSLTEGKMGEEIGRFRVDGCAELRCAALDPHHSSVCLAAGEGIGIAVIDTRRKGPIVMPNTTTLHGLGMIQSIDFSNAREGLFMTAGTDGVIMWHDFRMDGEKSVVERRGYLDAHDHCVQRSLFNPFHDELLISCGSDHTLKLWDTSKKGADGECAVCVSKLSDFAESVVACCWSNSNPWVFAGLSYNGRVLVDSVPEECKMQFIGKEG,not soluble
7,MSLAKNVNASVEETFKKSGIPVKVDKSNGQVTFGEKTMFDVDSDVLKPEAKEMLKMFVPKYIETIYKDYGDYISKIVIEGHTDDVGSYIYNLDLSQRRAYSVAKFIVGDEIGDYKYKDKVTKHIIAIGRSKAELIKNGDNSVNRDASRRVELKYEININQNKEGHHHHHH,soluble
8,MKRKVSVYDSSKDKTLGQVVKGESPIWIRVAMAILRVWFFIYDCLNYLPYQLFNSPTEKLRKSERVKANWVDDRDGPIRNIQGHASETFPGKDTVDKVWRKCVELYDESPCLGTRQLIEVHEDKQPGGRVFEKWHLGEYVWQSYKEVETQVARLAAGIKDLAHEEQNPKVVIFAETRADWLITALACFRANVTIVTVYATLGEDAIAHAIGETEATILVTSSELLPKIVTLGKKCPTLKTLIYFAPVDQKAPAPELAPFRDQFKHVLSLSGLLTRNQEQVKESTAVKSDIALIMYTSGTTGQPKGVILLHQNVVAALLGQGDGVGIICNADTYIGYLPLAHILELDAELTCLTKGAKVGYSSPLTLHDRASKIQKGTHGDCHALRPTLMAAVPAIMDRIFKAVSEEVAASPRFMQELFKLNYERKRSRYLEGYCSPFLDRIVFKKIRRLLGGKLRGVLSGGAPLNAETQRFMNICMCCPVVQGYGLTETCGAACVADINDLSTGTVGPPVRCSDIALREWSEGGYSPFNDPPQGEILISGENISPGYYKQPEKTAEDFITYKGKVYFATGDIGQKRDDGSLLIIDRKKDLVKLQHGEYVSLAKVECALLNCPIVDNICVYGSGMEDSVVALVVPNQKHLEKIAEAEGVSTSEMKTMCEDKKVIAAYKKQLEEHAKKSKLSRSEIPAAIHLCPEIWTPDTGLLTEALKLKRKPIQMAYQKTLDDLYKQLKKN,not soluble
9,MSLADWQEITGGITAPKGYRAAGITAGLKPSGLPDLALIVSDVEAIASGVFTTSQVKAACVDYCRQRLQAKQSARAILCNAGQANAATGSQGIKDAEESAELLAKELNISPELILLASTGVIGQRIKMDALRNGIPKLIASLTDTGSDAAAGAIITTDLVTKSIALETTIGDRPVRIGGIAKGSGMIHPNMATMLAFVTCDAAVSSHLWQQMLTRAADRSFNSITVDGDTSTNDSLIALANGQSRTPAITEVGAESEKLEAMLTAVCQHLAKAIARDGEGATCLIEVQVTGAHDEQAARQIAKTIAGSSLVKSAIFGRDPNWGRIAAAAGRAGVPFEQENLQIQLGDFLLLDNGQPLPFDRAAASAYLKQAATGAYLQQDTVLISVKVGNGHGTGKAWGCDLSYDYVKINAEYTTEGHHHHHH,soluble
10,GKVEERWTKTTDGKQMLSWVIYPVNFDANKKYPTLLFCEGGPQSPVSQFWSYRWNFQIMAANDYIIIAPNRRGLPGFGMEWLEQISGDYGGQCMKDYLSAIDDISKEPYVDTNRLGCVGASFGGFSVYWLAGHHDKRFKAFIAHDGIFNMEQQYLETEEMWFANWDMGGAYWDKNNATAQRTFANSPHRFVDKWDTPILCIHGEKDYRILASQGMSAFNAAVLRGVPAELLLYPDENHWVLKPQNGVLWQRTFFSWLDKWLK,not soluble
11,MAFANFRRILRLSTFEKRKSREYEHVRRDLDPNEVWEIVGELGDGAFGKVYKAKNKETGALAAAKVIETKSEEELEDYIVEIEILATCDHPYIVKLLGAYYHDGKLWIMIEFCPGGAVDAIMLELDRGLTEPQIQVVCRQMLEALNFLHSKRIIHRDLKAGNVLMTLEGDIRLADFGVSAKNLKTLQKRDSFIGTPYWMAPEVVMCETMKDTPYDYKADIWSLGITLIEMAQIEPPHHELNPMRVLLKIAKSDPPTLLTPSKWSVEFRDFLKIALDKNPETRPSAAQLLEHPFVSSITSNKALRELVAEAKAEVMEEIEDGRDEGEEEDAVDAASTLENHTQNSSEVSPPSLNADKPLEESPSTPLAPSQSQDSVNEPCSQPSGDRSLQTTSPPVVAPGNENGLAVPVPLRKSRPVSMDARIQVAQEKQVAEQGGDLSPAANRSQKASQSRPNSSALETLGGEKLANGSLEPPAQAAPGPSKRDSDCSSLCTSESMDYGTNLSTDLSLNKEMGSLSIKDPKLYKKTLKRTRKFVVDGVEVSITTSKIISEDEKKDEEMRFLRRQELRELRLLQKEEHRNQTQLSNKHELQLEQMHKRFEQEINAKKKFFDTELENLERQQKQQVEKMEQDHAVRRREEARRIRLEQDRDYTRFQEQLKLMKKEVKNEVEKLPRQQRKESMKQKMEEHTQKKQLLDRDFVAKQKEDLELAMKRLTTDNRREICDKERECLMKKQELLRDREAALWEMEEHQLQERHQLVKQQLKDQYFLQRHELLRKHEKEREQMQRYNQRMIEQLKVRQQQEKARLPKIQRSEGKTRMAMYKKSLHINGGGSAAEQREKIKQFSQQEEKRQKSERLQQQQKHENQMRDMLAQCESNMSELQQLQNEKCHLLVEHETQKLKALDESHNQNLKEWRDKLRPRKKALEEDLNQKKREQEMFFKLSEEAECPNPSTPSKAAKFFPYSSADAS,soluble
12,MAHHHHHHMPAKSAKSKTQTLRDERKLGVEKLVELVFIGRPRTLSFSHRSLGSLRHPYSSLICETSAACASTQDKIMYLLEVFLEAKAEKKAWMRVERIFDSMLGDALMEKMKLGLLLSSELLQRFEVLWIRLGGVNGGFIFEDAYKQFHQHLYFTLFGIEQMTLLPATMQFILEDYQYDSHDKSGIDFGSFAHSMLELADNWAGSREVTDYVAFMDKIIECYPASAVKPCKTHAPDELTLSKDAFFRGGVVVPRVEGEQIVYHRITL,not soluble
13,MAHHHHHHMQLLHAQQEGMKNIRQSEASHSDENDKKERGTRSGSTTGTCSEFDVCAVYDDDDVPLAAQFVRSCPPLTDPSWAMEELLRINSHVAVWTGSALPNSVWALPGSGHCPFGSTDADFARIR,not soluble
14,GPGSMSSGSHRSPSAMRPSTRISSIGATSNRSSTHNTETELDPFVASLSRVTVYTDIPDKTLQRIMSITVDAYNRFVLVPTRNTWRKEEGSRKELEREVERTALRDIAQAVKVNVEAALGGTWHVIYGRSFATYVTHQQRCFCHFQLDGANVVVWRHGG,soluble

# From the DeepSol protein solubility set
